T1: human Fcγ R IIB (human, UniProt P31994 46-217)
T1 sequence: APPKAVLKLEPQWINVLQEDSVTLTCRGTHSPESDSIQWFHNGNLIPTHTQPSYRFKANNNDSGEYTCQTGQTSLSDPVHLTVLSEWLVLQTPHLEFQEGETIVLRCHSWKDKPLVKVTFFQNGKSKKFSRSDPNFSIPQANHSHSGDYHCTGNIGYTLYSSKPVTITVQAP

B1: Humanized IgG 5H2 ΔD (IgG1 5H2 with a 9-amino-acid deletion, positions 231-239, at the N-terminus of the CH2 domain) (antibody)
heavy: EVQLLESGPGLVKPSETLSLTCTVSGGSISDFYWSWLRQSPGKGLEWIGYAHSRVSAYYNPSLKSRVTISVDTSKNQLSLRLSAVTAADTALYYCARQGTGTTGVSEDFFDLWGQGTKVIVSLASTKGPSVFPLAPSSKSTSGGTAALGCLVKDYFPEPVTVSWNSGALTSGVHTFPAVLQSSGLYSLSSVVTVPSSSLGTQTYICNVDHKPSNTKVDKKVEPKSCDKTHTCPPCPVFLFPPKPKDTLMISRTPEVTCVVVDVSHEDPEVKFNWYVDGVEVHNAKTKPREEQYNSTYRVVSVLTVLHQDWLNGKEYKCKVSNKALPAPIEKTISKAKGQPREPQVYTLPPSRDELTKNQVSLTCLVKGFYPSDIAVEWESNGQPENNYKTTPPVLDSDGSFFLYSKLTVDKSRWQQGNVFSCSVMHEALHNHYTQKSLSLSPGK
light: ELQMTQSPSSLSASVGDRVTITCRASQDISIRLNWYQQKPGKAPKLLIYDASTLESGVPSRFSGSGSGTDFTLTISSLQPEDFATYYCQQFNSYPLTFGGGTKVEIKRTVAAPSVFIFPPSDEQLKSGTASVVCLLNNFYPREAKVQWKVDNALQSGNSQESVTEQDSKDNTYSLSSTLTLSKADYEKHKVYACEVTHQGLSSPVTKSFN
notes: also called IgG1 5H2 ΔD; IgG 5H2D; copies: 2 + 2
B2: Humanized IgG 1A5 (IgG1), full-length (antibody)
heavy: not shown
light: ELQMTQSPSSVSASVGDTVTIACRASQSITNYLSWYQQKPGKAPKLLIYHASTLQSGIPSRFSGSGSGTDFTLTISSLQPDDFATYYCHYGYGTHTFGQGTKLEIKRTVAAPSVFIFPPSDEQLKSGTASVVCLLNNFYPREAKVQWKVDNALQSGNSQESVTEQDSKDNTYSLSSTLTLSKADYEKHKVYACEVTHQGLSSPVTKSFN
notes: also called IgG 1A5 WT; MAb IgG 1A5; copies: 2 + 2
B3: IgG 1A5 ΔA (replacement amino acids at 327, 330 and 331 from the Fc of IgG4) (antibody)
chain 1: EVQLLESGGGLVQPGGSRRLSCAASGFTISDNVMHWVRQAPGKGLEWVALIYSADTTHYADSVKGRFTISRDNSKNTLYLQMDSLRPEDTAVYYCAREYCTGDTCFAHFDYWGQGTLVSVSSASTKGPSVFPLAPSSKSTSGGTAALGCLVKDYFPEPVTVSWNSGALTSGVHTFPAVLQSSGLYSLSSVVTVPSSSLGTQTYICNVDHKPSNTKVDKKVEPKSCDKTHTCPPCPAPELLGGPSVFLFPPKPKDTLMISRTPEVTCVVVDVSHEDPEVKFNWYVDGVEVHNAKTKPREEQYNSTYRVVSVLTVLHQDWLNGKEYKCKVSNKGLPSSIEKTISKAKGQPREPQVYTLPPSRDELTKNQVSLTCLVKGFYPSDIAVEWESNGQPENNYKTTPPVLDSDGSFFLYSKLTVDKSRWQQGNVFSCSVMHEALHNHYTQKSLSLSPGK
chain 2: B2 light
B4: IgG 1A5 ΔD (IgG 1A5 with the 9-amino-acid deletion, amino acids 231-239, in the CH2 domain) (antibody)
heavy: EVQLLESGGGLVQPGGSRRLSCAASGFTISDNVMHWVRQAPGKGLEWVALIYSADTTHYADSVKGRFTISRDNSKNTLYLQMDSLRPEDTAVYYCAREYCTGDTCFAHFDYWGQGTLVSVSSASTKGPSVFPLAPSSKSTSGGTAALGCLVKDYFPEPVTVSWNSGALTSGVHTFPAVLQSSGLYSLSSVVTVPSSSLGTQTYICNVDHKPSNTKVDKKVEPKSCDKTHTCPPCPVFLFPPKPKDTLMISRTPEVTCVVVDVSHEDPEVKFNWYVDGVEVHNAKTKPREEQYNSTYRVVSVLTVLHQDWLNGKEYKCKVSNKALPAPIEKTISKAKGQPREPQVYTLPPSRDELTKNQVSLTCLVKGFYPSDIAVEWESNGQPENNYKTTPPVLDSDGSFFLYSKLTVDKSRWQQGNVFSCSVMHEALHNHYTQKSLSLSPGK
light: B2 light
notes: also called variant ΔD; copies: 2 + 2
B5: Chimpanzee antibody Fab 5H2 (Fab, V domains shown)
VH: EVQLLESGPGLVKPSETLSLTCTVSGGSISDFYWSWLRQSPGKGLEWIGYAHSRVSAYYNPSLKSRVTISVDTSKNQLSLRLSAVTAADTALYYCARQGTGTTGVSEDPFDLWGQGTKVIVSL
VL: ELQMTQSPSSLSASVGDRVTITCRASQDISIRLNWYQQKPGKAPKLLIYDASTLESGVPSRFSGSGSGTDFTLTISSLQPEDFATYYCQQFNSYPLTFGGGTKVEIKR

Tests used:
purified human C1q = purified human C1q (human, UniProt P02745 23-245; P02746 28-253; P02747 29-245); assay: ELISA, IgG titrated against purified human C1q
[1] = biological target: Envelope glycoprotein (E) of parental DENV-4 (C6/36) (dengue virus type 4, UniProt P09866 280-774)
human Fcγ R IIIB = human Fcγ R IIIB (human, UniProt O75015 17-200); assay: ELISA, IgG titrated against human Fcγ R IIIB
human Fcγ R I = human Fcγ R I (human, UniProt P12314 16-288); assay: ELISA, IgG titrated against human Fcγ R I
human Fcγ R IIB = biological target: T1, human Fcγ R IIB; assay: ELISA, IgG titrated against human Fcγ R IIB

Chain of purified human C1q (P02745 23-245 limits assumed, chain 1 of 3): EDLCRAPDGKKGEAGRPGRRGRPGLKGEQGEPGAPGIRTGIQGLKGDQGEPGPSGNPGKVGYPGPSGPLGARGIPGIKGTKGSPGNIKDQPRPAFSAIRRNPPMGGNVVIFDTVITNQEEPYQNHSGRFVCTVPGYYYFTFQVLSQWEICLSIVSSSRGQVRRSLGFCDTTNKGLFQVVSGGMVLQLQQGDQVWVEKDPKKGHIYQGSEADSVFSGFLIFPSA
Chain of purified human C1q (P02746 28-253 limits assumed, chain 2 of 3): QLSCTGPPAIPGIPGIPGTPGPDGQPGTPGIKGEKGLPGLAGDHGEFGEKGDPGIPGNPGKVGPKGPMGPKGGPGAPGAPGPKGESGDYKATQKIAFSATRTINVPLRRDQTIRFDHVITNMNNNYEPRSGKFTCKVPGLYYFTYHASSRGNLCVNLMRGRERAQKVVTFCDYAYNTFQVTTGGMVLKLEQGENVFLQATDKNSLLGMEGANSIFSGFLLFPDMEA
Chain of purified human C1q (P02747 29-245 limits assumed, chain 3 of 3): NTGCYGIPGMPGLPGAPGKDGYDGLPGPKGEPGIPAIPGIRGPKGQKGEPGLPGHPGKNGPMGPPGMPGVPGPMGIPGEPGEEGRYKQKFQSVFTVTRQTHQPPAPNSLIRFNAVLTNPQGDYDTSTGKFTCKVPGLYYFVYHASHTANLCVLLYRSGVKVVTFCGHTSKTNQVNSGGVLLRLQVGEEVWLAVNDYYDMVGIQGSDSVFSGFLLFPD
Chain of human Fcγ R I (P12314 16-288 limits assumed): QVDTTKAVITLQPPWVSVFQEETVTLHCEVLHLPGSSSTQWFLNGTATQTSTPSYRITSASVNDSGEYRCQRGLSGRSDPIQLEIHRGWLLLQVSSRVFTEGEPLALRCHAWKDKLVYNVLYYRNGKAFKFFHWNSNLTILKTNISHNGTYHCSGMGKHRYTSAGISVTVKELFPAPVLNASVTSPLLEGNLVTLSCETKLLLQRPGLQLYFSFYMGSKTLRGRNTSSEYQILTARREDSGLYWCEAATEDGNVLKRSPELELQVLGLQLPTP
Chain of Envelope glycoprotein (E) of parental DENV-4 (C6/36) (P09866 280-774 limits assumed): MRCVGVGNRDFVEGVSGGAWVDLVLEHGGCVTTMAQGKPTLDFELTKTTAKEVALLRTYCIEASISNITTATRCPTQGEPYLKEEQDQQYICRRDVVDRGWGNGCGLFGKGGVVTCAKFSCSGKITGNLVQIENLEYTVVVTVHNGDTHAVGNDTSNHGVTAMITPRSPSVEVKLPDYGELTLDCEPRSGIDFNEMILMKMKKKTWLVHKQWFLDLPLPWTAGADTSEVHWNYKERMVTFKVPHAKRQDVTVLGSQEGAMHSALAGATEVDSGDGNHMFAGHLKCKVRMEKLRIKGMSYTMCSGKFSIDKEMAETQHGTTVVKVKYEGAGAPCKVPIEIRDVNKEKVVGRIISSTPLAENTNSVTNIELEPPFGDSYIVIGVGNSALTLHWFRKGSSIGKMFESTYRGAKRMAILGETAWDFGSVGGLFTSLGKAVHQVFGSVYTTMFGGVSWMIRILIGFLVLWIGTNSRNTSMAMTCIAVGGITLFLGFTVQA
Chain of human Fcγ R IIIB (O75015 17-200 limits assumed): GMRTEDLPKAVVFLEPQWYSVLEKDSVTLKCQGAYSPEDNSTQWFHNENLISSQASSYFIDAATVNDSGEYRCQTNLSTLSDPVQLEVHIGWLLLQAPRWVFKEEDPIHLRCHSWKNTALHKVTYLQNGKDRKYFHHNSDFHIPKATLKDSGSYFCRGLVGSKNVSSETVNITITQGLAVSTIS

Binder | binding result (purified human C1q) | Kd [1] [pM] | binding result (human Fcγ R IIIB) | EC50 (read off the curve) (human Fcγ R I) [µg/mL] | binding result (human Fcγ R IIB)
B1 | no binding | 140 | – | – | –
B2 | binds | – | binds | ~0.7 | binds
B3 | – | – | – | ~3 | –
B4 | no binding | – | – | – | –
B5 | – | 210 | – | – | –

From US20100247549A1 (US Dept. of Health and Human Services, published 2010)
